One assay deals with rabbit albumin (rabbit) (UniProt P49065). The assay is described as follows: direct binding ELISA, immobilized albumin. (An ELISA detects its analyte on a solid surface through an enzyme-linked reagent.)
Assay [1] addresses rat albumin (rat) (UniProt P02770). Nature of the assay: direct binding ELISA, immobilized albumin.
Assay [2] has as its target mouse albumin (mouse) (UniProt P07724). The assay is described as follows: solution binding ELISA; end of the range tied by Table 14 (41 nM).
Assay [3] has the same target. The assay is described as follows: direct binding ELISA, immobilized albumin.
Assay [4] concerns the target rat albumin (rat) (UniProt P02770). The assay is described as follows: Kd for albumin as listed with the PK data (solution binding ELISA).
The target is the same in assay [5]. The assay is described as follows: solution binding ELISA (Scatchard).
For assay [6], the target named is mouse albumin (mouse) (UniProt P07724). The assay is described as follows: solution binding ELISA (Scatchard).

Bridges are numbered along the chain shown (N, C = ends). Where no end group is shown, it is not given here.

Chain of rabbit albumin (rabbit) (P49065 25-608 limits assumed): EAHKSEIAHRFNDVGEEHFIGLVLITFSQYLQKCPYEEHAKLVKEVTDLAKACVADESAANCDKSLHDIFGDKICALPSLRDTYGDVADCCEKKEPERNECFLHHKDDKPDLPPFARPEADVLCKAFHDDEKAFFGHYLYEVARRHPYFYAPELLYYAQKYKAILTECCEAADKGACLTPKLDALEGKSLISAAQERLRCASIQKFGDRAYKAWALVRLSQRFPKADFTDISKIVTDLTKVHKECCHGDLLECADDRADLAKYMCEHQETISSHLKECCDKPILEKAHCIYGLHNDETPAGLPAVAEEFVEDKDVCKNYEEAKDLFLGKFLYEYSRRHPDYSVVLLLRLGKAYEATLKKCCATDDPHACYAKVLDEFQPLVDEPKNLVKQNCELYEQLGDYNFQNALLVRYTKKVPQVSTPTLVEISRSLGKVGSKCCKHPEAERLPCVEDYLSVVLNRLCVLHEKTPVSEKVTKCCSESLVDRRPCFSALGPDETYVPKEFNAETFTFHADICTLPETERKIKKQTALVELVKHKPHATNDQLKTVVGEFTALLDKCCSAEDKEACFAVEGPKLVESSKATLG
Chain of rat albumin (rat) (P02770 25-608 limits assumed): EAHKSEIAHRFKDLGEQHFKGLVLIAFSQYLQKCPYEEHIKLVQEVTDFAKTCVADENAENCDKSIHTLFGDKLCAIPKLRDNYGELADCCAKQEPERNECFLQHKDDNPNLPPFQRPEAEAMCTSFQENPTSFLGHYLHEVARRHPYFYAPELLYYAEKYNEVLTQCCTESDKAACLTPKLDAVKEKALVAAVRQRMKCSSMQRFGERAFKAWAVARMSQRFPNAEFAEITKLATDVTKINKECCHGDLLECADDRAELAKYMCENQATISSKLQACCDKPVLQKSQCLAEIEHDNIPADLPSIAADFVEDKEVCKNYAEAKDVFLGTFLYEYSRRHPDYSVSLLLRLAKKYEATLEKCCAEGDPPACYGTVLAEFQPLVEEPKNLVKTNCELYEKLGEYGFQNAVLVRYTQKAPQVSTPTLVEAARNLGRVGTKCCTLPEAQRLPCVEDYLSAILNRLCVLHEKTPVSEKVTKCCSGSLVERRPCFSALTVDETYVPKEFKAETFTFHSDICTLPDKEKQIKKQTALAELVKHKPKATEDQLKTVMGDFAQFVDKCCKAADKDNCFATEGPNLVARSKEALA
Chain of mouse albumin (mouse) (P07724 25-608 limits assumed): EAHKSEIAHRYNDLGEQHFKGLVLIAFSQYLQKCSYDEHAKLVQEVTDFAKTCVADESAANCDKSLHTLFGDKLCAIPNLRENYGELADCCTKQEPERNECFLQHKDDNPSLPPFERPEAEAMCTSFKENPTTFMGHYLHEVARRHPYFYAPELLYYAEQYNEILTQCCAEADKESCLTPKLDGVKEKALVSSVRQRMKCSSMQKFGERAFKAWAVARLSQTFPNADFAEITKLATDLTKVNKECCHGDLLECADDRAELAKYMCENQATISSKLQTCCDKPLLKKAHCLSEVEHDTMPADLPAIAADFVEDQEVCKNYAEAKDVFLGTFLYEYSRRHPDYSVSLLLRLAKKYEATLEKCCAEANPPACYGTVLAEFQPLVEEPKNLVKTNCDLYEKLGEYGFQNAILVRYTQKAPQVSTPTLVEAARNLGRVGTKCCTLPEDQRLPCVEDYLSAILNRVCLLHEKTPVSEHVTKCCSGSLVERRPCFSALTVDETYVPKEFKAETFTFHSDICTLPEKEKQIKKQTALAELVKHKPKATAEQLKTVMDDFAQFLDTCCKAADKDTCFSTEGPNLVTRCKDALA

The EC50 is the concentration giving half of the maximal effect. As for {Fab4D5 heavy chain (…CDKTH)}-DICLPRWGCLWED (Fab, part only; not given: carrier Fab4D5 heavy and light chains, not shown: another chain or arm of the molecule; large carriers, disulfide 3-9) [AB.Fab4D5-H4], in the assay with rabbit albumin (rabbit), the EC50 is 500 nM.
Regarding {Fab4D5 heavy chain (…CDKTH)}-DICLPRWGCLW (Fab, part only; not given: carrier Fab4D5 heavy and light chains, not shown: another chain or arm of the molecule; large carriers, disulfide 3-9) [AB.Fab4D5-H10], the EC50 with rat albumin (rat) [1] is 8 nM; with rabbit albumin (rabbit), > 2000 nM.
Usually Kd stands for a measure of binding affinity in units of concentration. High values mean lower affinity, low ones higher affinity. The molecule {Fab4D5 heavy chain (…CDKTH)}-IEDICLPRWGCLWE (Fab, part only; not given: carrier Fab4D5 heavy and light chains, not shown: another chain or arm of the molecule; large carriers, disulfide 5-11) [AB.Fab4D5-H8] showed an EC50 with rabbit albumin (rabbit) of 500 nM. In the assay with mouse albumin (mouse) [2], the Kd is 40 nM.
For the molecule {Fab4D5 heavy chain (…CDKTH)}-DICLPRWGCL (Fab, part only; not given: Carrier Fab (trastuzumab), not shown: another chain or arm of the molecule; large carriers, disulfide 3-9) [AB.Fab4D5-H11], the concentration for a half-maximal effect (EC50) with rat albumin (rat) [1] was > 1000 nM; in the assay with mouse albumin (mouse) [3], > 2000 nM; with rabbit albumin (rabbit), > 2000 nM. Besides, the Kd with rat albumin (rat) [4] was 2500 nM; in the assay with rat albumin (rat) [5], 2430 nM; with mouse albumin (mouse) [6], 1250 nM.

For the origin of these results see patent publication US20070202045A1.
